Measured values as given in article doi:10.1101/2025.01.07.631698.
Read-outs that look alike come from different tables or passages of the source.

Assays:
[1] = target: microtubules polymerised from porcine tubulin (porcine) (UniProt P02550); assay: FRAP
[2] = target: microtubules polymerised from porcine tubulin (porcine) (UniProt P02550); assay: FRAP; remark: listed apart in the source

koff [1]: 1.07 s⁻¹
koff [2]: 0.26 s⁻¹
Substance: Anillin-GFP (full-length human anillin, isoform 2, 1087 amino acids) (from UniProt Q9NQW6-2 1-1087) (natural protein)
